Reference: the supplement of paper PMC10065799, “High-throughput profiling of sequence recognition by tyrosine kinases and SH2 domains using bacterial peptide display” (eLife, 2023)

Tests used:
Grb2 SH2 = Grb2 SH2 (UniProt P62993); experiment: SH2 binding enrichment of the phosphorylated peptide, bacterial display (enrichment ratio); higher = better substrate or ligand; peptides without Tyr show the background
SHP2-C SH2 = experiment: as above
c-Src SH2 = experiment: as above
c-Abl (mouse) = experiment: phosphorylation enrichment, bacterial display (enrichment ratio); higher = better substrate or ligand; peptides without Tyr show the background
AncSZ = experiment: as above
Jak2 = Jak2 (UniProt O60674); experiment: as above
Chain of Jak2 (O60674 whole entry, looked up): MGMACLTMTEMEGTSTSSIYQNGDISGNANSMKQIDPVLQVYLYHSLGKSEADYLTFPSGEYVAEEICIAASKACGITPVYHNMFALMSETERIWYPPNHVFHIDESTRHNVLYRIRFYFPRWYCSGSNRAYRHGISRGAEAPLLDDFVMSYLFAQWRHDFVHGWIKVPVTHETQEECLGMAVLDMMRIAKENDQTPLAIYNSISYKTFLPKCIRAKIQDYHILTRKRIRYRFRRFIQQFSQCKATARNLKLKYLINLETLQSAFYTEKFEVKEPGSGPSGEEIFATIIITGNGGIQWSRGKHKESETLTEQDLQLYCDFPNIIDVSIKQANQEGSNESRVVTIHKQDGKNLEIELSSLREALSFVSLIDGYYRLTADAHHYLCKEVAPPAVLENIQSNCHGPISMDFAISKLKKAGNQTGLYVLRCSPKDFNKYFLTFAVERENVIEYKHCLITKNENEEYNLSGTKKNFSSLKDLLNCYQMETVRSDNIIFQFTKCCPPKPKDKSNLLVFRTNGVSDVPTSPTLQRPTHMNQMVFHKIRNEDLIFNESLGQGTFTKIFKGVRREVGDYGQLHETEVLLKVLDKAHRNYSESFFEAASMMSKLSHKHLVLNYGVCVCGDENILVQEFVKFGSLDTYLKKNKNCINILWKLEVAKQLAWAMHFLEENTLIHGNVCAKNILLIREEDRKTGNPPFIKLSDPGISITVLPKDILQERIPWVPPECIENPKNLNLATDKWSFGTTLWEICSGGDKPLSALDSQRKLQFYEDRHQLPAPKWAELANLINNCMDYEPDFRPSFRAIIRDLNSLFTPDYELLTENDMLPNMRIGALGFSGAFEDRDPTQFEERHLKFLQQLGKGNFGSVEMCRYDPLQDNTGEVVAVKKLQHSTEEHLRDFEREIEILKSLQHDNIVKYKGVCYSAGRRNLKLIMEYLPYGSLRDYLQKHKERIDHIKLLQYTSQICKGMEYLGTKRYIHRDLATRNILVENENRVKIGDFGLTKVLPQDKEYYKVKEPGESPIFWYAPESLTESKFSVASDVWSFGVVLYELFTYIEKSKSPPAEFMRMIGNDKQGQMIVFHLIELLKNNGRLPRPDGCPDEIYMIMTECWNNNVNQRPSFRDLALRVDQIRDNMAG

FGFR3 = FGFR3 (UniProt P22607); experiment: as above
Chain of FGFR3 (P22607 whole entry, looked up): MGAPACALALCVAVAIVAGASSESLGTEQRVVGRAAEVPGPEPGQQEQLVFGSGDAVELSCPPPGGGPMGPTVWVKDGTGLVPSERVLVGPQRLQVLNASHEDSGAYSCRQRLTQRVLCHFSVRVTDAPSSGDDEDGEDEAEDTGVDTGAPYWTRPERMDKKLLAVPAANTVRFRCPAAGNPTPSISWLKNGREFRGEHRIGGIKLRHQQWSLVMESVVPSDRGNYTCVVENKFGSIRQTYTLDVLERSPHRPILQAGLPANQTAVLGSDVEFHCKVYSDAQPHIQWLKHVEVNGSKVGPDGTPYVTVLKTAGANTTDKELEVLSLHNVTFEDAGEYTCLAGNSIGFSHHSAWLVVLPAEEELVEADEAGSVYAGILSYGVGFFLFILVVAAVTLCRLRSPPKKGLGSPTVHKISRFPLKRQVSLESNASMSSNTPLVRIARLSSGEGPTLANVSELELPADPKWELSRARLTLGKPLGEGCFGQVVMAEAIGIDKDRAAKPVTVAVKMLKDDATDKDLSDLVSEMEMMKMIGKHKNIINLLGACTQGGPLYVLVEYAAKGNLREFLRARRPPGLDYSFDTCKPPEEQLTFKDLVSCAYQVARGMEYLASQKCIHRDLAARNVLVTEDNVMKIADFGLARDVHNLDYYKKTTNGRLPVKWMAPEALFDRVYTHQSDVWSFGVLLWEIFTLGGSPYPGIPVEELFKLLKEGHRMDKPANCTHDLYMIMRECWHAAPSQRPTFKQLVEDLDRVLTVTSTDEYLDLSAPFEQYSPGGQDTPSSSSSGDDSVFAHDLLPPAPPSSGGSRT

EPHB1 = EPHB1 (UniProt P54762); experiment: as above
Chain of EPHB1 (P54762 whole entry, looked up): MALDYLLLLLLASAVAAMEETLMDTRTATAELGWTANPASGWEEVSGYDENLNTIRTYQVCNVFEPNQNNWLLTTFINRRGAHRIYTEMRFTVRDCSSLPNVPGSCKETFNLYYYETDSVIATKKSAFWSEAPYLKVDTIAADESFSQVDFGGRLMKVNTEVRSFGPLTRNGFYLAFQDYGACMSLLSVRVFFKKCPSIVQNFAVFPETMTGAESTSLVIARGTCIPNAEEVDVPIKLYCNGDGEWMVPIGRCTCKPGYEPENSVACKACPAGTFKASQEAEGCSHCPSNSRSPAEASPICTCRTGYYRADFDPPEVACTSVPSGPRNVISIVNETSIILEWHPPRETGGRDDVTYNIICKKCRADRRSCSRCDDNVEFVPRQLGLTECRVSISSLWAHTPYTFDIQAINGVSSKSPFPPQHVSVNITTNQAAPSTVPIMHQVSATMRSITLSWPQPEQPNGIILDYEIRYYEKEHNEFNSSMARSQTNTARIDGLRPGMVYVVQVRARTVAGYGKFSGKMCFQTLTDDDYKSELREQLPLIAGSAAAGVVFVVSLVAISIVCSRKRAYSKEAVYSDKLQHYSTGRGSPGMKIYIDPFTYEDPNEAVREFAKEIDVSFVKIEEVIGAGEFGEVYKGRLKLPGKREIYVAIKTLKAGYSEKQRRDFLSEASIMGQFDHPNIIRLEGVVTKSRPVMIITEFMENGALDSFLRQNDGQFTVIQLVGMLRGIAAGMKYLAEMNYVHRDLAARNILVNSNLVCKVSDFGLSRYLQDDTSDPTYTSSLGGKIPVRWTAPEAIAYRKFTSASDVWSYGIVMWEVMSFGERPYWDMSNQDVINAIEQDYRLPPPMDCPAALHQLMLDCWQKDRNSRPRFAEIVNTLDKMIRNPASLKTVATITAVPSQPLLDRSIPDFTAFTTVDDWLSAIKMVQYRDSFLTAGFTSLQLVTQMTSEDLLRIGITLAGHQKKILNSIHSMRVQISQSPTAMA

Fer (mouse) = experiment: as above
Hck = Hck (UniProt P08631); experiment: as above
Fyn = Fyn (UniProt P06241); experiment: as above
Chain of Fyn (P06241 whole entry, looked up): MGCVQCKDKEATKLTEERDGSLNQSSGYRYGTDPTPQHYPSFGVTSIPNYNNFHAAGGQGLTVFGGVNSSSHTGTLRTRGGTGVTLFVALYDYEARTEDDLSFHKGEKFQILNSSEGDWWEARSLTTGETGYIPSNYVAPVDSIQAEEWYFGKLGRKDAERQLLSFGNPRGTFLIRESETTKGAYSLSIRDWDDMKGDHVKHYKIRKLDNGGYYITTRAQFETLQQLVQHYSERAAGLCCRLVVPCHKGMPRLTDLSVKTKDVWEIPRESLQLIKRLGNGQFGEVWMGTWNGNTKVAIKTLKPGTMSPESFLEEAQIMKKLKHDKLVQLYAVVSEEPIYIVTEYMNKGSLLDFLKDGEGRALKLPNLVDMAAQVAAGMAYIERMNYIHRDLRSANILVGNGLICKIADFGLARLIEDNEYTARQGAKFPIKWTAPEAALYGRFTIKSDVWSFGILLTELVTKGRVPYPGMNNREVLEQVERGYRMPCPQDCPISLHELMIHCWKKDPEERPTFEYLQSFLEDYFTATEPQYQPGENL

MERTK = MERTK (UniProt Q12866); experiment: as above
FGFR1 = FGFR1 (UniProt P11362); experiment: as above
EPHB2 = EPHB2 (UniProt P29323); experiment: as above
Chain of EPHB2 (P29323 whole entry, looked up): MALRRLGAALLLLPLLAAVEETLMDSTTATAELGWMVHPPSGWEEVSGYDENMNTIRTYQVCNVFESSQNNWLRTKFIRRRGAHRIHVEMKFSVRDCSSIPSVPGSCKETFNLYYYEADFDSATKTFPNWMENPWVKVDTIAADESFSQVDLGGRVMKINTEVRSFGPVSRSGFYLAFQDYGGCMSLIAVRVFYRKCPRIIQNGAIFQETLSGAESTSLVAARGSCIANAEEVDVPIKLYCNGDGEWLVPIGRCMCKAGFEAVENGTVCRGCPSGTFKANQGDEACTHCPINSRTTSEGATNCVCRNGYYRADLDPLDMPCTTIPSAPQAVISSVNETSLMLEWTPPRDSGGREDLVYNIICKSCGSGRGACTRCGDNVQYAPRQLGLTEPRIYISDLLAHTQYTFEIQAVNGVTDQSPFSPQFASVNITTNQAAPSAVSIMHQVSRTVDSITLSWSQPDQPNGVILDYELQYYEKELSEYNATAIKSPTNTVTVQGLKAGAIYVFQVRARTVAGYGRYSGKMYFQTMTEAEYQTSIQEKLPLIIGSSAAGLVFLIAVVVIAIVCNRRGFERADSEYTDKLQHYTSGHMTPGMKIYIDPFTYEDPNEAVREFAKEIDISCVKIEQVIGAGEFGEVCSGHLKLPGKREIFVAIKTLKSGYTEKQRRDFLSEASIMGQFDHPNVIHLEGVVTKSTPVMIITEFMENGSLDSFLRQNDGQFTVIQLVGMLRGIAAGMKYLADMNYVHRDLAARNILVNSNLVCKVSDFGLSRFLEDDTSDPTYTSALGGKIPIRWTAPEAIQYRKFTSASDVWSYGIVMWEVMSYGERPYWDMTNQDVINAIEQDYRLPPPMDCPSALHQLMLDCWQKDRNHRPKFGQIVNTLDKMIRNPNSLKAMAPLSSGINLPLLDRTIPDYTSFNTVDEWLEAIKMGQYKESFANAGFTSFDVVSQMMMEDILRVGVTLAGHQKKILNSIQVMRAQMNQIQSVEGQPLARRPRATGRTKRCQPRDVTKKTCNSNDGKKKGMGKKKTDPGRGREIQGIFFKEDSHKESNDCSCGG

Fes = Fes (UniProt P07332); experiment: as above
c-Src = experiment: as above
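Wherever SH2 binding enrichment of the phosphorylated peptide, bacterial display is given: peptide library displayed on the E. coli surface as eCPX fusions, selected cells deep-sequenced, score is each peptide's frequency after selection divided by its frequency in the input.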
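Wherever phosphorylation enrichment, bacterial display is given: 11-residue human phosphosite peptides and single-mutation variants displayed on the E. coli surface, counted by deep sequencing, each peptide's frequency after selection divided by its frequency in the unselected input library; frequency after pTyr selection over input frequency; kinase dosed for 20-30% of maximal phosphorylation in three min.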

Chain of Grb2 SH2 (P62993 whole entry, looked up): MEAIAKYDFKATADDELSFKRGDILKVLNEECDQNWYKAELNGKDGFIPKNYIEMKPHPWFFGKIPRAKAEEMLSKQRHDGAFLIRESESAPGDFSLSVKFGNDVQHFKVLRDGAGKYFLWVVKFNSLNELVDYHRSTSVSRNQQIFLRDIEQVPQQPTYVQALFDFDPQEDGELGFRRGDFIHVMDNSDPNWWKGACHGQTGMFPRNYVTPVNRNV

Row | Sequence | SH2 binding enrichment (Grb2 SH2) | SH2 binding enrichment (SHP2-C SH2) | SH2 binding enrichment (c-Src SH2) | phosphorylation enrichment (c-Abl (mouse)) | phosphorylation enrichment (AncSZ) | phosphorylation enrichment (Jak2) | phosphorylation enrichment (FGFR3) | phosphorylation enrichment (EPHB1) | phosphorylation enrichment (Fer (mouse)) | phosphorylation enrichment (Hck) | phosphorylation enrichment (Fyn) | phosphorylation enrichment (MERTK) | phosphorylation enrichment (FGFR1) | phosphorylation enrichment (EPHB2) | phosphorylation enrichment (Fes) | phosphorylation enrichment (c-Src)
1 | LMFPDYLPCSV [SAG_Y129_T125M] | 0.921 | 0.704 | 0.57 | 0.985 | 2.76 | 3.69 | 4.58 | 1.07 | 1.19 | 0.604 | 0.743 | 0.486 | 7.55 | 0.92 | 1.55 | 0.772
2 | SVVVPYEPPEA [TP53_Y220_V225A] | 0.967 | 0.675 | 0.795 | 0.859 | 1.28 | 1.1 | 0.738 | 0.61 | 0.593 | 0.54 | 0.483 | 0.54 | 0.496 | 0.536 | 1.19 | 0.574
3 | FPRTGYSVPFG [TGM1_Y370_L366P_YF] | 0.987 | 1.4 | 3.87 | 1.11 | 0.686 | 0.688 | 0.513 | 0.493 | 0.421 | 0.419 | 0.475 | 0.485 | 0.379 | 0.504 | 0.709 | 0.511
4 | YLGRNYLETLM [DUS3L_Y610_D609N] | 1.01 | 1.1 | 0.41 | 0.765 | 0.859 | 0.705 | 0.744 | 0.578 | 0.487 | 0.551 | 0.435 | 0.467 | 0.85 | 0.467 | 0.926 | 0.411
5 | GGYTRYCDGKK [PROS1_Y266_C265R] | 1.31 | 0.889 | 1.21 | 0.528 | 0.649 | 0.759 | 0.436 | 0.347 | 0.357 | 0.446 | 0.365 | 0.4 | 0.37 | 0.386 | 0.585 | 0.338
6 | VATRWYPSPEL [CDKL5_Y177_R178P] | 1.23 | 0.794 | 0.907 | 0.696 | 0.891 | 0.763 | 0.541 | 0.577 | 0.289 | 0.504 | 0.439 | 0.522 | 0.437 | 0.517 | 0.953 | 0.473
7 | FKDVTYLTEEK [UBE3A_Y127] | 1.11 | 0.777 | 0.429 | 0.726 | 1.15 | 0.959 | 0.683 | 0.618 | 0.423 | 0.53 | 0.747 | 0.51 | 0.524 | 0.691 | 1.09 | 0.511
8 | QRIYQYIQSRF [DYRK1B_Y273] | 1.26 | 1.58 | 2.05 | 3.62 | 3.1 | 1.82 | 2 | 6.1 | 5.21 | 3.87 | 1.68 | 6.41 | 1.25 | 1.63 | 2.48 | 3.17
9 | DRVALYIAREG [AACS_Y117] | 0.896 | 0.928 | 0.487 | 0.731 | 0.957 | 1.02 | 0.717 | 0.671 | 0.484 | 0.569 | 0.468 | 0.395 | 0.519 | 0.534 | 1.14 | 0.432
10 | GTPVMYTFDEF [COL10A1_Y623_YF] | 0.89 | 0.693 | 0.662 | 0.767 | 1.03 | 1.16 | 0.806 | 0.621 | 0.473 | 0.474 | 0.733 | 1.03 | 0.504 | 0.611 | 1.16 | 0.668
11 | LGQRIYQFIQS [DYRK1B_Y271_YF] | 1.02 | 1.33 | 2.23 | 1.3 | 0.916 | 0.725 | 1.5 | 11.7 | 10.1 | 4.98 | 2.42 | 8.85 | 2.23 | 5.42 | 1.26 | 4.15
12 | FNDSTYNQQLI [ZPLD1_Y198_YF] | 0.852 | 0.498 | 0.437 | 0.694 | 0.883 | 0.863 | 0.555 | 0.474 | 0.463 | 0.482 | 0.429 | 0.431 | 0.651 | 0.483 | 0.878 | 0.617
13 | SRPTQYSSFAC [SPEM2_Y104_S108A] | 0.984 | 2.18 | 0.825 | 0.736 | 0.66 | 0.733 | 0.533 | 0.362 | 0.435 | 0.511 | 0.563 | 0.519 | 0.482 | 0.494 | 0.727 | 0.665
14 | CQNRFYDAKVR [FKBP6_Y188_R183C] | 0.941 | 0.914 | 0.684 | 0.684 | 0.794 | 0.869 | 0.669 | 0.445 | 0.426 | 0.475 | 0.373 | 0.477 | 0.495 | 0.485 | 0.897 | 0.416
15 | IIWDSYTTNEM [GNB4_Y85_K89E] | 0.896 | 0.752 | 0.739 | 0.829 | 1.48 | 1.39 | 0.903 | 0.787 | 0.705 | 0.54 | 0.747 | 0.411 | 0.678 | 0.795 | 1.43 | 0.57
